Laboratory results taken from patent US20230293738A1 (Y MABS THERAPEUTICS, published 2023).
Several values for one entry are separate records, joined by “and”; a condition that tells them apart may be missing. Equal values may be shown once. Read-outs that look alike come from different tables or passages of the source.

What was measured:
recombinant rat B7-H3 = target: T1, recombinant rat B7-H3 (rat, UniProt Q7TPB4 29-244, limits assumed); assay: SPR, triplicate
T1 sequence (looked up): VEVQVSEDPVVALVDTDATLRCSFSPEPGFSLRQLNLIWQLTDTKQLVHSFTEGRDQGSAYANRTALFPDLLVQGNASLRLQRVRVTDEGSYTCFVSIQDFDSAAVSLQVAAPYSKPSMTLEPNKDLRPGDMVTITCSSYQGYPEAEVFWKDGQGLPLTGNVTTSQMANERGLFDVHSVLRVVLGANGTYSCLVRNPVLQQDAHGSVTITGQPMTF

recombinant mouse B7-H3 = target: T2, recombinant mouse B7-H3 (mouse, UniProt Q8VE98 29-244, limits assumed); assay: SPR, triplicate
T2 sequence (looked up): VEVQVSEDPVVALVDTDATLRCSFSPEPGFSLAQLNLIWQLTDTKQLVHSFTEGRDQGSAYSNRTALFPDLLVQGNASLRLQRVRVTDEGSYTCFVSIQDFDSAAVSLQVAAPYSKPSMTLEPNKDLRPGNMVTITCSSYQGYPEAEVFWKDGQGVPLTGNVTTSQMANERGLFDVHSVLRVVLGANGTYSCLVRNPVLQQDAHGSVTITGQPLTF

[1] = target: T3, human 2Ig-B7H3 (B7H3-2Ig-His) (human, UniProt Q5ZPR3 29-466); assay: SPR, Biacore T200, 2Ig-B7H3-His on CM5 chip, 1:1 fit; unconjugated 8H9, lot S219, Table 5 run
T3 construct: Recombinant His-tagged protein immobilised on a CM5 chip; also called 21g-B7H3; B7H3-21g-His; not shown: His tag
T3 sequence: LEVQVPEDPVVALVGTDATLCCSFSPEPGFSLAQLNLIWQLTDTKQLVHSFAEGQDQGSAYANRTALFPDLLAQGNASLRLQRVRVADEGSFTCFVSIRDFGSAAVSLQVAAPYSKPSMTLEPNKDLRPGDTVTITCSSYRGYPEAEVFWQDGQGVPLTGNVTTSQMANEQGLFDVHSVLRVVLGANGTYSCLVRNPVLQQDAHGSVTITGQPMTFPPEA
Procedure: (§1) Both human B7H3 41g and 21g proteins were dissolved in PBS (Phosphate-Buffered Saline) to make 0.1 mg/ml stock solution and stored in −80° C. B7-H3 proteins were immobilized onto the CM5 sensor chip using Amine Coupling Kit. Both proteins were diluted to 10 ug/ml with 10 mM Sodium acetate, pH 5.0. […] A blank immobilized surface was used as a control
(§2) Binding Assays: [0143] 1. Antibodies were diluted in HBS-EP buffer (10 mM HEPES, 150 mM NaCl, 3 mM EDTA, 0.05% Surfactant P20, pH 7.4) at varying concentrations (25-50-100-200-400 nM) prior to analysis. […] 2. Samples (60 ul) were injected over the sensor surface at a flow rate of 30 ul/min over 2 min. [0145] 3. Following completion of the association phase, dissociation was monitored in HBS-EP buffer for 10 min at the same flow rate. […] 4. At the end of each cycle, the surface was regenerated using 10 mM NaOH at a flow rate of 50 ul/min over 2×15 sec.

[2] = target: T3, human 2Ig-B7H3 (B7H3-2Ig-His); assay: SPR, Biacore T200, 2Ig-B7H3-His on CM5 chip, 1:1 fit; unconjugated 8H9, lot P76501A, Table 5 run
[3] = target: T4, human 4Ig-B7H3 (B7H3-4Ig-His) (human, UniProt Q5ZPR3 29-466); assay: SPR, Biacore T200, 4Ig-B7H3-His on CM5 chip, 1:1 fit
T4 construct: Recombinant His-tagged protein immobilised on a CM5 chip; also called 41g-B7H3; human 4Ig-B7-H3 (dominant isoform); not shown: His tag
T4 sequence: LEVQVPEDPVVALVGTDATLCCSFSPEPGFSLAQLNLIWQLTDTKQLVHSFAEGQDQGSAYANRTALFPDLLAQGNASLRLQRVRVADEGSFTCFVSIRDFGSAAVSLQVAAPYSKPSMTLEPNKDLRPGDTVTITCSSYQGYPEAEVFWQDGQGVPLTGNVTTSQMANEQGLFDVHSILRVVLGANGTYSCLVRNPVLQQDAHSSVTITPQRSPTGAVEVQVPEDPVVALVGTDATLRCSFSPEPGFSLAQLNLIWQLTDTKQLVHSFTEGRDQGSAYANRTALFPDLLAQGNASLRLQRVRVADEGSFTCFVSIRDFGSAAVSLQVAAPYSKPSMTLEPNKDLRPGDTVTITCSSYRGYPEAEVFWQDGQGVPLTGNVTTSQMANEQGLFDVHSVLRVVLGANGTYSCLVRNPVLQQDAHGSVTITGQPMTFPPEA
Procedure: as §1
(§3) The data were analyzed by the 1:1 fitting model and default parameter setting for the rate constants using the Biacore T200 Evaluation Software, and the apparent association on rate constant (kon, ka), dissociation off rate constant (koff, kd) and equilibrium dissociation constant (KD=kd/ka) were calculated.

[4] = target: T3, human 2Ig-B7H3 (B7H3-2Ig-His); assay: SPR, Biacore T200, 2Ig-B7H3-His on CM5 chip, 1:1 fit; * beyond fitting limits; unconjugated 8H9, lot S219, Table 3 run
[5] = target: T3, human 2Ig-B7H3 (B7H3-2Ig-His); assay: SPR, Biacore T200, 2Ig-B7H3-His on CM5 chip, 1:1 fit
Procedure: as §1, §3

[6] = target: T3, human 2Ig-B7H3 (B7H3-2Ig-His); assay: SPR, Biacore T200, 2Ig-B7H3-His on CM5 chip, 1:1 fit; unconjugated 8H9, lot S219, Table 3 run
[7] = target: recombinant human B7-H3 (Example 3) (human) (UniProt Q5ZPR3); assay: SPR, triplicate
[8] = target: T3, human 2Ig-B7H3 (B7H3-2Ig-His); assay: SPR, Biacore T200, 2Ig-B7H3-His on CM5 chip, 1:1 fit; * beyond fitting limits
Procedure: as §1, §2

[9] = target: T3, human 2Ig-B7H3 (B7H3-2Ig-His); assay: SPR, Biacore T200, 2Ig-B7H3-His on CM5 chip, 1:1 fit; remark: listed apart in the source
Procedure: as §1, §2, §3

binding result (recombinant rat B7-H3): no binding (tested: 3 µg/mL)
binding result (recombinant mouse B7-H3): no binding (tested: 3 µg/mL)
Kd [1]: < 0.212 nM
Kd [2]: < 0.186 nM
Kd [3]: 3.18 nM and 3.13 nM
koff [3]: 9.11e-05 s⁻¹ and 8.73e-05 s⁻¹
kon [3]: 28600 M⁻¹ s⁻¹ and 27900 M⁻¹ s⁻¹
t ½ [3]: 2.11 h and 2.21 h
koff [4]: < 1e-05 s⁻¹
kon [5]: 53800 M⁻¹ s⁻¹ and 47100 M⁻¹ s⁻¹
t ½ [5]: 72.9 days and 169 days
Kd [6]: < 0.244 nM
Kd [7]: 1.1 pM
koff [7]: 1e-05 s⁻¹
kon [7]: 8.9e+06 M⁻¹ s⁻¹
koff [8]: 1.1e-07 s⁻¹
Kd [9]: 0.0123 nM
kon [9]: 43400 M⁻¹ s⁻¹ and 46200 M⁻¹ s⁻¹ and 40900 M⁻¹ s⁻¹
B1: 8H9 antibody comprising a light chain according to SEQ ID No.: 2 and heavy chain according to SEQ ID No.: 1 (antibody, mouse IgG1, kappa, V domains shown)
VH: QVQLQQSGAELVKPGASVKLSCKASGYTFTNYDINWVRQRPEQGLEWIGWIFPGDGSTQYNEKFKGKATLTTDTSSSTAYMQLSRLTSEDSAVYFCARQTTATWFAYWGQGTLVTVSA
VL: DIVMTQSPATLSVTPGDRVSLSCRASQSISDYLHWYQQKSHESPRLLIKYASQSISGIPSRFSGSGSGSDFTLSINSVEPEDVGVYYCQNGHSFPLTFGAGTKLELKR
notes: Unconjugated mouse IgG1 mAb; also called m8H9; murine 8H9
